From doi:10.1101/2023.03.09.531510

Assays:
Assay in all cases: protein-fragment complementation
[1] = molecular target: Myo5 (UniProt Q04439)
[2] = molecular target: Mid2 (UniProt P36027)
[3] = molecular target: Sac6 (UniProt P32599)
[4] = molecular target: Pkh2
[5] = molecular target: Ygl242c (UniProt P53066)
[6] = molecular target: Nap1 (UniProt P25293)
[7] = molecular target: Ysc84 (UniProt P32793)
[8] = molecular target: Abp1 (UniProt P15891)
[9] = molecular target: Sla2 (UniProt P33338)
[10] = molecular target: Cdc10 (UniProt P25342)
[11] = molecular target: Pab1 (UniProt P04147)
Sequence of UniProt P04147 (P04147 whole entry): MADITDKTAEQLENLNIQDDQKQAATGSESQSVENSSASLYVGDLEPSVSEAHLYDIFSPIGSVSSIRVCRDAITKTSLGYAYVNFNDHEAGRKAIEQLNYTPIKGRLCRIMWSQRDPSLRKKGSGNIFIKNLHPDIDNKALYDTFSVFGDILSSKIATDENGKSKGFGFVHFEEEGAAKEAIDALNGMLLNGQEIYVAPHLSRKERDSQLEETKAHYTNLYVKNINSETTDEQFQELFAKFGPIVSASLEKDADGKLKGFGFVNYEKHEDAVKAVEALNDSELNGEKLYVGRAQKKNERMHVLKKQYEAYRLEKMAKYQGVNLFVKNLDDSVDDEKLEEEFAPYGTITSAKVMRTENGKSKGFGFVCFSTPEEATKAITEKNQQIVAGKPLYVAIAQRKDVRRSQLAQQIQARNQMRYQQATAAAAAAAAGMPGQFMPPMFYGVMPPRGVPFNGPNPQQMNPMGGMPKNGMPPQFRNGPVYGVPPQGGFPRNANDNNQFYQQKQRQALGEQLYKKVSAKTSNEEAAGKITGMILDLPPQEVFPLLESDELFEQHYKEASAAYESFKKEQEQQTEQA

[12] = molecular target: Cdc3 (UniProt P32457)
[13] = molecular target: Sfk1 (UniProt P35735)
[14] = molecular target: Yor1 (UniProt P53049)
[15] = molecular target: Aim21 (UniProt P40563)
Sequence of UniProt P40563 (P40563 whole entry): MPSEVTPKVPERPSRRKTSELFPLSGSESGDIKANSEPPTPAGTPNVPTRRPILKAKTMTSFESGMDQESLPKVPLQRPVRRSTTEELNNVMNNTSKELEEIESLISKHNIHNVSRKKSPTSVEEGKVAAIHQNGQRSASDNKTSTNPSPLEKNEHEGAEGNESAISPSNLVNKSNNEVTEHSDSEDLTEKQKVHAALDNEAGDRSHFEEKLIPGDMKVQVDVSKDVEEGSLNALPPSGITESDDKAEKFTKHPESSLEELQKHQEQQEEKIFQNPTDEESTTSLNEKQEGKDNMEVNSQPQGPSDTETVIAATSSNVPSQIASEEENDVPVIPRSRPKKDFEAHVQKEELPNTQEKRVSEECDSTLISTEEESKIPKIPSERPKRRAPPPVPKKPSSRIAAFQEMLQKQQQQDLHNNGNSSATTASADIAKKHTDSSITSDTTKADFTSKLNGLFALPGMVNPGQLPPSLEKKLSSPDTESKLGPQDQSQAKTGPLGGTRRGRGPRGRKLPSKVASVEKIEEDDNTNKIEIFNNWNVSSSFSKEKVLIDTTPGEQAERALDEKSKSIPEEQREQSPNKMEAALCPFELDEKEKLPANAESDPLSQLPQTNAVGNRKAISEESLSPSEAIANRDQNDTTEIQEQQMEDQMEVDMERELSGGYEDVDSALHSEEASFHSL

[16] = molecular target: Bzz1 (UniProt P38822)
[17] = molecular target: Cmd1 (UniProt P06787)
[18] = molecular target: Hek2 (UniProt P38199)
[19] = molecular target: Las17 (UniProt Q12446)
[20] = molecular target: Hsp104 (UniProt P31539)
[21] = molecular target: Ssb1 (UniProt P11484)
[22] = molecular target: Ssa1 (UniProt P10591)
[23] = molecular target: Pan1 (UniProt P32521)
Sequence of UniProt P32521 (P32521 whole entry): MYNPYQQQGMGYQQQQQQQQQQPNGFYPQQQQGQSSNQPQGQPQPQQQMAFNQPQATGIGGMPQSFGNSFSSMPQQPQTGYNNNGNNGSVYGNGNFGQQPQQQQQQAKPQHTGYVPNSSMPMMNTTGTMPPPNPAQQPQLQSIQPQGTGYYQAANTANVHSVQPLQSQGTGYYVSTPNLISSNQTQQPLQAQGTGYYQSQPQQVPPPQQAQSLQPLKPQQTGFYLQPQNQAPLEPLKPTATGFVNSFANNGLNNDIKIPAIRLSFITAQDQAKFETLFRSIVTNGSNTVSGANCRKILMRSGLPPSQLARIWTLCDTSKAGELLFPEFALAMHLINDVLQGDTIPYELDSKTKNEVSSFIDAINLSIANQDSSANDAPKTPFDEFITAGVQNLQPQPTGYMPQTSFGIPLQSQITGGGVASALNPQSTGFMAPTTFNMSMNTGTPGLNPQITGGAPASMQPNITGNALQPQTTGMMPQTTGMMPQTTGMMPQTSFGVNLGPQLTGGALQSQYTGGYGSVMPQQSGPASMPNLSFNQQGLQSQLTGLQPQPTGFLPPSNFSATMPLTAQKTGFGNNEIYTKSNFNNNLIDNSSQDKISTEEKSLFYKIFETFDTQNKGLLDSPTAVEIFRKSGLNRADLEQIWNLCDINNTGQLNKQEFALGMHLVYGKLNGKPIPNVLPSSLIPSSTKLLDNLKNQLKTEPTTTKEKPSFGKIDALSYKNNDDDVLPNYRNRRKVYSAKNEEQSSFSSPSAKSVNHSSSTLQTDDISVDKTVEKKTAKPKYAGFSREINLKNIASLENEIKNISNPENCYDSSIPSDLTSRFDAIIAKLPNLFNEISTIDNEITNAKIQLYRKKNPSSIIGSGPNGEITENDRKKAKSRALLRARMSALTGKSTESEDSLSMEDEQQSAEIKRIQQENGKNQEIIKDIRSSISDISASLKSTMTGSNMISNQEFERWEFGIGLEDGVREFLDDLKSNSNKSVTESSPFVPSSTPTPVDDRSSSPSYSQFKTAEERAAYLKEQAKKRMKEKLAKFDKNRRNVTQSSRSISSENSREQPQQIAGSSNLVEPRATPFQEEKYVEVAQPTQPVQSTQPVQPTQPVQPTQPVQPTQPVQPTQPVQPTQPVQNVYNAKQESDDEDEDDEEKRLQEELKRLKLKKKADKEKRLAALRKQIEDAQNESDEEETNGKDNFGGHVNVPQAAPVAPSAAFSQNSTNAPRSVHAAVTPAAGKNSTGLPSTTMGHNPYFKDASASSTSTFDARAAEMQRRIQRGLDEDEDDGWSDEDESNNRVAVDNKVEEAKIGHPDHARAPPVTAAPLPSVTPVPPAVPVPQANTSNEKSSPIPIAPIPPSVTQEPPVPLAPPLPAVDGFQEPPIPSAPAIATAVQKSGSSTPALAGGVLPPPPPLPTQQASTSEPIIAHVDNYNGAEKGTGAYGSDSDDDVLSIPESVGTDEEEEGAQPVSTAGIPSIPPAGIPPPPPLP

[24] = molecular target: Sbp1 (UniProt P10080)
[25] = molecular target: Arc19 (UniProt P33204)
[26] = molecular target: Tif4631 (UniProt P39935)
[27] = molecular target: Bbc1 (UniProt P47068)
[28] = molecular target: Ssb2 (UniProt P40150)
[29] = molecular target: Arc40 (UniProt P38328)
[30] = molecular target: Bmh1 (UniProt P29311)
[31] = molecular target: Smi1 (UniProt P32566)
[32] = molecular target: Arc18 (UniProt Q05933)
[33] = molecular target: Lsb3 (UniProt P43603)
Sequence of UniProt P43603 (P43603 whole entry): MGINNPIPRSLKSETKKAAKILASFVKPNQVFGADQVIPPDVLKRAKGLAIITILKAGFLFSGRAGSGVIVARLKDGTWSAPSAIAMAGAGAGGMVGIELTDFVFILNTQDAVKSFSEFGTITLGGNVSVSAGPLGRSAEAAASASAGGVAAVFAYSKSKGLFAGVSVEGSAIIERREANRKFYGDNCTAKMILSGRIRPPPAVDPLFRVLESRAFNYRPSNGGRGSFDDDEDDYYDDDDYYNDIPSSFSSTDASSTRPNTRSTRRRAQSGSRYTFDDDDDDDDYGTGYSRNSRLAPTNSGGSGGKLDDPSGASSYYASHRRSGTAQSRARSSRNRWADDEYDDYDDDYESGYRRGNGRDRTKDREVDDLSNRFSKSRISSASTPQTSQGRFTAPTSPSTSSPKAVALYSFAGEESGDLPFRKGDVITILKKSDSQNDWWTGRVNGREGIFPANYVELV

[34] = molecular target: Ssz1 (UniProt P38788)
[35] = molecular target: Ste20 (UniProt Q03497)
Sequence of UniProt Q03497 (Q03497 whole entry): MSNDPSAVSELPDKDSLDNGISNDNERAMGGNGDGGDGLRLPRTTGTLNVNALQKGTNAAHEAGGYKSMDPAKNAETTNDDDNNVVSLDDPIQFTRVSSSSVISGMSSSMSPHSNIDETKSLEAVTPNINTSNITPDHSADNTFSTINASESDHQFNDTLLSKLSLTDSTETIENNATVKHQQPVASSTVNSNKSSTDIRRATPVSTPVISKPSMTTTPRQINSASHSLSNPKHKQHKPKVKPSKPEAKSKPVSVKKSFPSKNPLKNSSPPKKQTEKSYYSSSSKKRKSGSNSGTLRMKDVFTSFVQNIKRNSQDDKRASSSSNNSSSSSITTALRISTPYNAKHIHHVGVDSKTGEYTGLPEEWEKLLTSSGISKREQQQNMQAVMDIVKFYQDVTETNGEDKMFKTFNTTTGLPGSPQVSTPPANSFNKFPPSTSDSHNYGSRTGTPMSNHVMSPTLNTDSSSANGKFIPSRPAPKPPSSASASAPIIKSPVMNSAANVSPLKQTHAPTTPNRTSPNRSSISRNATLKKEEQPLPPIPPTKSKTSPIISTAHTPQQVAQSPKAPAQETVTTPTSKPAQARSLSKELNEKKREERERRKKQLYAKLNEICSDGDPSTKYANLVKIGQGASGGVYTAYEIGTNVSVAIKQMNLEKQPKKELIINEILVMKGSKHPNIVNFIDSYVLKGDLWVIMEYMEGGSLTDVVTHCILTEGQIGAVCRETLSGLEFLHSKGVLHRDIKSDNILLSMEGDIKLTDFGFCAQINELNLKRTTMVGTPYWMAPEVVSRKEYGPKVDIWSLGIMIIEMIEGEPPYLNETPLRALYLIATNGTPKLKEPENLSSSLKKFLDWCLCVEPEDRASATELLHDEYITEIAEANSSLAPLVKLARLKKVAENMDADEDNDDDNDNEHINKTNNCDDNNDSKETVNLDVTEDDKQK

[36] = molecular target: Srv2 (UniProt P17555)
[37] = molecular target: Syp1 (UniProt P25623)
[38] = molecular target: Vrp1 (UniProt P37370)
[39] = molecular target: Osh2 (UniProt Q12451)
[40] = molecular target: Pfk1 (UniProt P16861)
[41] = molecular target: Sla1 (UniProt P32790)
[42] = molecular target: Rvs167 (UniProt P39743)
[43] = molecular target: Arc15 (UniProt P40518)
[44] = molecular target: Chc1 (UniProt P22137)
[45] = molecular target: Tdh3 (UniProt P00359)

Sequence of UniProt P53066 (P53066 whole entry): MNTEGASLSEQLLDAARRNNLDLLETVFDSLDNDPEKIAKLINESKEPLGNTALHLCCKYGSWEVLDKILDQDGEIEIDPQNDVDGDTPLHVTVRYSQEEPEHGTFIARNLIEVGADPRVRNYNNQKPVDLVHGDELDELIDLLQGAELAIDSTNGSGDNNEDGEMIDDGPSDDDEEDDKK
Sequence of UniProt P32599 (P32599 whole entry): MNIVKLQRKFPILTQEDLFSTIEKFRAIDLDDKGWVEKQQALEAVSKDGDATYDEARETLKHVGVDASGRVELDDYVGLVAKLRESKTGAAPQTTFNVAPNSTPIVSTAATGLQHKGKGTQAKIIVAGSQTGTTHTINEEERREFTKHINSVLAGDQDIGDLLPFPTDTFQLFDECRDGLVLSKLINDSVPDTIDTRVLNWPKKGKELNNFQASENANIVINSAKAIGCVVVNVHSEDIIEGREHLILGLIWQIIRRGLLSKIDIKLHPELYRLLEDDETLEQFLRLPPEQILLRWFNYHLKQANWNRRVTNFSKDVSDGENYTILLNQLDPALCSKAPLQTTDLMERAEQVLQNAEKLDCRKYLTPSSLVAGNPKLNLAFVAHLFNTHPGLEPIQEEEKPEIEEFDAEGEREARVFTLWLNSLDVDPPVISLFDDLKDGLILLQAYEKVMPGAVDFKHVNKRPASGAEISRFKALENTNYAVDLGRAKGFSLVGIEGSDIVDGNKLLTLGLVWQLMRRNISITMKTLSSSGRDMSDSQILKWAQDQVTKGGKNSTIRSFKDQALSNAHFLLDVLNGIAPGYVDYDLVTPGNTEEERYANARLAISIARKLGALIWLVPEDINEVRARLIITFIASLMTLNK

Substance: Myo5 with SH3 AncA_3 (from UniProt Q04439)
- interaction score [1]: 0.869
- interaction score [2]: 0.821
- interaction score [3]: 0.775
- interaction score [4]: 0.142
- interaction score [5]: 0.881
- interaction score [6]: 0.444
- interaction score [7]: 0.455
- interaction score [8]: 0.865
- interaction score [9]: 0.59
- interaction score [10]: 0.404
- interaction score [11]: 0.756
- interaction score [12]: 0.466
- interaction score [13]: 0.691
- interaction score [14]: 0.467
- interaction score [15]: 0.715
- interaction score [16]: 0.767
- interaction score [17]: 0.405
- interaction score [18]: 0.366
- interaction score [19]: 0.823
- interaction score [20]: 0.724
- interaction score [21]: 0.889
- interaction score [22]: 0.849
- interaction score [23]: 0.876
- interaction score [24]: 0.772
- interaction score [25]: 0.724
- interaction score [26]: 0.621
- interaction score [27]: 0.698
- interaction score [28]: 0.881
- interaction score [29]: 0.902
- interaction score [30]: 0.762
- interaction score [31]: 0.514
- interaction score [32]: 0.812
- interaction score [33]: 0.595
- interaction score [34]: 0.776
- interaction score [35]: 0.424
- interaction score [36]: 0.591
- interaction score [37]: 0.513
- interaction score [38]: 0.862
- interaction score [39]: 0.703
- interaction score [40]: 0.807
- interaction score [41]: 0.51
- interaction score [42]: 0.501
- interaction score [43]: 0.837
- interaction score [44]: 0.553

Substance: Myo5 with SH3 AncC (from UniProt Q04439)
- interaction score [1]: 0.885
- interaction score [2]: 0.846
- interaction score [3]: 0.807
- interaction score [4]: 0.0849
- interaction score [5]: 0.919
- interaction score [6]: 0.469
- interaction score [7]: 0.431
- interaction score [8]: 0.887
- interaction score [9]: 0.575
- interaction score [10]: 0.334
- interaction score [11]: 0.783
- interaction score [12]: 0.438
- interaction score [45]: 0.949
- interaction score [13]: 0.685
- interaction score [14]: 0.395
- interaction score [15]: 0.727
- interaction score [16]: 0.782
- interaction score [17]: 0.412
- interaction score [18]: 0.421
- interaction score [19]: 0.843
- interaction score [20]: 0.76
- interaction score [21]: 0.93
- interaction score [22]: 0.883
- interaction score [23]: 0.896
- interaction score [24]: 0.816
- interaction score [25]: 0.72
- interaction score [26]: 0.659
- interaction score [27]: 0.712
- interaction score [28]: 0.92
- interaction score [29]: 0.946
- interaction score [30]: 0.806
- interaction score [31]: 0.555
- interaction score [32]: 0.85
- interaction score [33]: 0.584
- interaction score [34]: 0.81
- interaction score [35]: 0.33
- interaction score [36]: 0.579
- interaction score [37]: 0.48
- interaction score [38]: 0.89
- interaction score [39]: 0.654
- interaction score [41]: 0.489
- interaction score [42]: 0.404
- interaction score [43]: 0.874
- interaction score [44]: 0.578

Substance: Myo5 with SH3 optMyo5 (from UniProt Q04439)
- interaction score [1]: 0.915
- interaction score [2]: 0.866
- interaction score [3]: 0.838
- interaction score [4]: 0.124
- interaction score [5]: 0.948
- interaction score [6]: 0.509
- interaction score [7]: 0.514
- interaction score [8]: 0.903
- interaction score [9]: 0.65
- interaction score [10]: 0.423
- interaction score [11]: 0.794
- interaction score [12]: 0.493
- interaction score [45]: 0.97
- interaction score [13]: 0.723
- interaction score [14]: 0.521
- interaction score [15]: 0.758
- interaction score [16]: 0.814
- interaction score [17]: 0.319
- interaction score [18]: 0.412
- interaction score [19]: 0.875
- interaction score [20]: 0.762
- interaction score [21]: 0.944
- interaction score [22]: 0.908
- interaction score [23]: 0.926
- interaction score [24]: 0.834
- interaction score [25]: 0.769
- interaction score [26]: 0.671
- interaction score [27]: 0.758
- interaction score [28]: 0.932
- interaction score [29]: 0.968
- interaction score [30]: 0.831
- interaction score [31]: 0.568
- interaction score [33]: 0.639
- interaction score [34]: 0.841
- interaction score [35]: 0.446
- interaction score [36]: 0.658
- interaction score [37]: 0.572
- interaction score [38]: 0.916
- interaction score [39]: 0.768
- interaction score [40]: 0.877
- interaction score [41]: 0.551
- interaction score [42]: 0.539
- interaction score [43]: 0.902
- interaction score [44]: 0.603

Substance: Myo5 with SH3 AncA (from UniProt Q04439)
- interaction score [1]: 0.889
- interaction score [2]: 0.848
- interaction score [3]: 0.801
- interaction score [4]: 0.128
- interaction score [5]: 0.917
- interaction score [6]: 0.489
- interaction score [7]: 0.458
- interaction score [8]: 0.89
- interaction score [9]: 0.633
- interaction score [10]: 0.39
- interaction score [11]: 0.783
- interaction score [12]: 0.481
- interaction score [45]: 0.947
- interaction score [13]: 0.711
- interaction score [14]: 0.473
- interaction score [15]: 0.744
- interaction score [16]: 0.801
- interaction score [17]: 0.216
- interaction score [18]: 0.391
- interaction score [19]: 0.862
- interaction score [20]: 0.755
- interaction score [21]: 0.918
- interaction score [22]: 0.885
- interaction score [23]: 0.908
- interaction score [24]: 0.792
- interaction score [25]: 0.754
- interaction score [26]: 0.664
- interaction score [27]: 0.722
- interaction score [28]: 0.915
- interaction score [29]: 0.937
- interaction score [30]: 0.791
- interaction score [31]: 0.53
- interaction score [32]: 0.844
- interaction score [33]: 0.616
- interaction score [34]: 0.807
- interaction score [35]: 0.447
- interaction score [36]: 0.62
- interaction score [37]: 0.526
- interaction score [38]: 0.892
- interaction score [39]: 0.738
- interaction score [41]: 0.527
- interaction score [42]: 0.525
- interaction score [43]: 0.865
- interaction score [44]: 0.583
